Molecular target: GATOR2 purified from HEK293T cells (UniProt Q9NXC5 1-875; Q6PJI9 1-974; Q96S15 1-790; Q96EE3 1-360; P55735 1-322)
Test: pull-down

- binding result: binds
B1: GST-Sesn2 (natural protein, UniProt P58004 1-480, looked up)
chain: MIVADSECRAELKDYLRFAPGGVGDSGPGEEQRESRARRGPRGPSAFIPVEEVLREGAESLEQHLGLEALMSSGRVDNLAVVMGLHPDYFTSFWRLHYLLLHTDGPLASSWRHYIAIMAAARHQCSYLVGSHMAEFLQTGGDPEWLLGLHRAPEKLRKLSEINKLLAHRPWLITKEHIQALLKTGEHTWSLAELIQALVLLTHCHSLSSFVFGCGILPEGDADGSPAPQAPTPPSEQSSPPSRDPLNNSGGFESARDVEALMERMQQLQESLLRDEGTSQEEMESRFELEKSESLLVTPSADILEPSPHPDMLCFVEDPTFGYEDFTRRGAQAPPTFRAQDYTWEDHGYSLIQRLYPEGGQLLDEKFQAAYSLTYNTIAMHSGVDTSVLRRAIWNYIHCVFGIRYDDYDYGEVNQLLERNLKVYIKTVACYPEKTTRRMYNLFWRHFRHSEKVHVNLLLLEARMQAALLYALRAITRYMT

Source: PMC4303546 (Cell reports, 2014)
